This test concerns GBM MVECs. Nature of the test: Transwell migration assay (VEGF-A + fibronectin induced). The note with it: protein coated on the underside of the insert, different concentrations. In kind it is cell-based, human. The method, then:
For the migration assays, the undersides of 24-well plate inserts (FluoroBlock, BD Falcon) were coated with 0.5 ml PBS containing 10 μg*ml^−1 fibronectin (recombinant human fibronectin, Biopur AG) and different concentrations of Nogo-A Delta 21, Nogo-A Delta 20 and Nogo-66 (R&D Systems) and incubated for 1 h at 37° C. Endothelial cells (GBM MVECs) were starved in migration medium (DMEM+0.25% BSA) 4 h before detachment with accutase (PAA Laboratories). Cells were resuspended in migration medium (1 Mio ml^−1) and labeled with calcein AM (Molecular Probes, 4 μg ml^−1), followed by washing with HBSS and resuspending in migration medium (125,000 cells ml^−1). The coated inserts were washed and the bottom chamber was prepared by adding migration medium with or without human VEGF-A (PeproTech Inc., 10 ng ml^−1). The inserts were then put in an empty 24-well plate (BD Falcon) and calcein AM-labeled endothelial cells (50,000 cells per insert) were added.
The loaded inserts were transferred to the prepared cluster plate and incubated at 37° C., 5% CO2 for 4 h. A cell titration plate was prepared by adding different cell numbers (50,000/25,000/12,500/6,250/3,125/1,563/782 cells per well) in triplicates in 1.2 ml migration medium and incubated in parallel. The fluorescence was measured after 4 h by a cytofluorometer (Tean Infinite Pro 200) and the number of migrated cells was calculated based on the titration curve.
To ask how co-signaling of Nogo-A Delta 20/Nogo-66 coated to the underside of transwell inserts and of its receptors affect cell migration, calcein-AM labeled GBM MVECs were incubated for 1 h with the pharmacological blockers of-the Nogo-A Delta 20 receptor S1PR2 (JTE-013, 1 μM, 10 μM), with the pharmacological blocker of S1PR1 and S1PR3 (VPC 23019, 10 μM) (Tocris Bioscience), and with the competitive inhibitor of the Nogo-66 receptor NgR1 (NEP1-40, 4.6 μg/ml) during calcein-AM labeling. After washing, the cell medium was again supplied with these pharmacological blockers, prior to cell addition in the upper chamber of the transwell insert.

B1: Nogo-A Delta 20: Nogo-A specific inhibitory domain, 182 aa; human aa 567-748 (SEQ ID NO 002), rat aa 544-725 (SEQ ID NO 001) (protein, UniProt Q9NQC3 567-748, looked up, fragment)
chain: TGTKIAYETKMDLVQTSEVMQESLYPAAQLCPSFEESEATPSPVLPDIVMEAPLNSAVPSAGASVIQPSSSPLEASSVNYESIKHEPENPPPYEEAMSVSLKKVSGIKEEIKEPENINAALQETEAPYISIACDLIKETKLSAEPAPDFSDYSEMAKVEQPVPDHSELVEDSSPDSEPVDLF
B1: the “VEGF+FN-induced migration” value was “dose-dependently inhibited”.

The values above are taken from patent publication US20180015144A1, “AGONISTS OF THE NOGO-A S1PR PATHWAY FOR THE TREATMENT OF GLIOBLASTOMA” (UNIVERSITAT ZURICH, priority 2015, published 2018).
